This note sets out measurements from the domain aggregation screens of Martell et al. (2025).

Bounds are passed on as bounds.

This data set can be described thus: soluble fraction after stress (log2 fold change); higher = more stays soluble; pooled small domains, quantitative proteomics. Conditions: stress: pH 4. In a few lines: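 Aggregation propensity is estimated from the fold change in each domain's soluble amount after acid stress. Pooled small-domain libraries were stressed at pH 4, and higher log2 values mean more stayed soluble.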
Take “HMATIIGSIGIVTQKVGLTGVPGRVYVNNESWAAISANGKEIENDTQVIVVKIDGATLIIEKKG”: the “soluble fraction (log2)” value was -0.262.
In the case of “HMATKEQIKRIYGLGAGLGIVGKDKDDMLHELIFSITGKDSVKQLDDSEFKAVQAELINRMKLA” it was -0.111; in that of “HMATLAVPNLMRLSQGEAMALIRLSGLSIGNVSIDSSMGSPRVIRQEPQASGGMLVLTQGDQVHLWLEGP”, -2.08.
As for “HMATLQLPVPKITLYPGELIRSDHLTDQRFNARALYHSAVYKSREDIVGKVARRTLLPGQPIPVNALR”, the “soluble fraction (log2)” value amounted to 0.194.
Take “HMATPKRGFRKQLAPLVQSGTITREEAGELSRSSGDATALRTKIGELMKAGKLTRKEAGELYSDAFPENA”: the “soluble fraction (log2)” value came out at 0.0387.
For the sequence “HMATPYISMAGIGKSFGPVHALKSVNLTVYPGEIHALLGENGAGKSTLMKVLSGIHEPTKGTITINNIN”, the “soluble fraction (log2)” value was at least 0.43.
On to “HMATRAEQMAKTHQAILDTARELFLRNGYDATSTRDIANAIGITQPALYHHFKDKEVIFLAVI”, for which the “soluble fraction (log2)” value was determined as 0.101.
With “HMATSLTEQEKLIFGLLKKQSPIELSSLKEQAGLSNKKWDKAIKGLSTQQLAKVTKTENGLFVHLLQ”, the “soluble fraction (log2)” value was 0.12.
Take “HMATTAGIEKYLGSGLIKGIGPIYAKKIVRKFKEDTIRIIDEEPDRLLEVEGIGQKRLEIIKQAWQQQKE”: the “soluble fraction (log2)” value was -0.826.
As to “HMATVHVDGIQYDFSSPEQAKEFAYKWAKKHNLTWEVHGETIHIK”, the “soluble fraction (log2)” value was -0.0405.
In the case of “HMATYNEVLKRLIEERKRLGLSQQEMARLVHITQSNYSKVEKGLHRLSYEELKYLSKANVDIFYILT” it was 0.0845; in that of “HMAVANEAIANINMKEVKQAIHNLPEIFKNPFLLYFDGYKYHEIAEMLDEPLGTIKSRIHFARKLLKSHI”, 0.22; in that of “HMAVDVNKATAAELDSIKGIGPAISAKILEEKKKGGNFKDWNDLVTRVSGVGEANAAKFSSEGLTVGGAS”, 0.235.
With “HMAVELPLETTLDIVRKYARNQEVDRRAERVEAVSAEALQTLAPRGTKLASEIVEQAKTQVLEELA”, the “soluble fraction (log2)” value is -0.0679.
For “HMAVKYTKDDFLYTEKPYEAIYDYKNDPFMHNLKIEQMAQQAAEVGVKTFKGLYKNYVKMREMQRGANV”, the “soluble fraction (log2)” value was 0.0966.
Regarding “HMAVNSALVQRNWLIGYRIAEEELQGDNRAEYGASIIKKLAKELTAEYGKGYTKTNLYHFYSFYKT”, the “soluble fraction (log2)” value was -0.494.
With “HMAVNVNGIHLSSQQHEALVSIWRTGRMPEPHAGQKPWLWIQALRRRGLVSGNALRLTDKGRHIVQLLQ”, the “soluble fraction (log2)” value was 0.226.
For the sequence “HMAVPAALVQAWLELSRRMVAGTQDVGERFAEEARKMHYGETEDRGIRGQATLTEVRDLLDEGIEVLPLLL”, the “soluble fraction (log2)” value was -0.725.
With “HMAVPLVRGTVTSSVGTVLLLSVGERDFFLSEGEEKDGVLLQSLSEKSAVVVVSGRAYTLSL”, the “soluble fraction (log2)” value was -0.435.
On to “HMAVRLADMAAEKIRKMIIENKFDAGEPLSEMRLAEMFNVSRTPIREAIAILEQEGLLTTVHGKGAFIS”, for which the “soluble fraction (log2)” value is -0.637.
For “HMAVSDAAEEYGKAGTPLVILAGKEYGSGSSRDWAAKGPYLQGVRAVLAESYERIHRSNLVGMGIVPLTYK”, the “soluble fraction (log2)” value came to 0.109.
“HMAVSDPTAGGIKALMYPNPAQDRLSVALDIPAGLDKQAQMTVTDMMGRVVTQQQVTLNDGFQVFEL”: the “soluble fraction (log2)” value amounted to 0.209.
In the case of “HMAVSSYSVKRYIRNMIQAEDPSAPFSDEALRLALLAHGIAVSRRVVTKYRMAMDIPSSSQRRKR”, the “soluble fraction (log2)” value was -0.12.
As for “HMAVSTFGRITASSLNVRSGPSTDHEKVGSLAAGRVVELLEESDGWYRIENGYISTEYVTIVDPSQ”, the “soluble fraction (log2)” value was -1.33.
For the sequence “HMAVTEVKTTAVVNMRSSDSEKADKLGKAQIGDTFRVLEQRANGWTKLTDGTQEFFIKSEYLEAIA”, the “soluble fraction (log2)” value was found to be 0.0485.
In the case of “HMAVVAPLAGSVARVLVADGDEIEAGQVLLVLEAMKMETEITAPKAGKVGAILVGKGDSVQGGQGLR”, the “soluble fraction (log2)” value was -0.249.
With “HMAYLTGFHAIEELIRAGKAKGPLLVANAGPRARTIMSLATDNKIRIDRLGEHELNRLAPGNRGIALYVE”, the “soluble fraction (log2)” value is at least 0.43.
As to “HMDAAYVYVIGTRVNQRAGPSTSNAVMGVLSEGTRVETLRDEGQWTQIRSNFGTGWMSSSFLSSVAP”, the “soluble fraction (log2)” value is 0.124.
As for “HMDADRILHKTLKPRELEIYQLIKAYLEEHSQIANAKVQEISGLSEATTRRYLNIFVEFGLLKTS”, the “soluble fraction (log2)” value is -0.164.
On to “HMDADTVGQIRVVKQILDDGRLIVVDASGNPVLVRRSSALSLTAISQGDRIIVDPSVRLAIELLPNE”, for which the “soluble fraction (log2)” value was determined as 0.148.
Turning to “HMDAEELNSKAKDEFTWLEDDESETNLEYRKMVSSEDMAIVAKVAPALAAKLKYQLAHAATNMV”, the “soluble fraction (log2)” value was -0.529.
In the case of “HMDAEVEHLFRIIAELKEKNVAIIYISHKMDEIFRISDDITVYRDGEYIATDRAENLNVDKVIQLMVGREV” it was -0.538; in that of “HMDAEWRTLTLAPEQHQQRLDRALADSLPEFSRSYVQQLIDTGMVRVNGVLAAKSAQRVKALDQVQVELR”, -0.186; in that of “HMDAGIVVPDTYNKPLAEAVASLEGEGFRTEKKEGYSDTVAKGNVMSQNPEAGTNAERGSTVTIVISQGPQ”, 0.22.
Take “HMDAINYEDFQLLIKQRGSFKVAFEDIMFSTKVAIEKKEDFYDFVTKLIDNGFNNMAYNYLEGFQD”: the “soluble fraction (log2)” value is -2.34.
In the case of “HMDAISYTQFMEEAKQGRINKVEVQGRTLMVTPTDGKAYSLTSPGDLWMTTDLMKYGVNVYGAE” it was -0.527; in that of “HMDALKAVYQWVTRTMMKNQTGVMQTLPNRDLIELNTQITAQRLMQAGVDPTTLKNANQVENAVNIIESR”, -0.193.
Consider “HMDAMGAVGIARAFISAGERGGDISDGLEHMHGKLLRLSSLMYTRSGKKMAARRHELLSSFVQALEEEIK”, for which the “soluble fraction (log2)” value is -0.0591.
For the sequence “HMDAMQAFPNPTVDEIHFVTPTTGRVYNAHGQLVMVLKNAQLVNVRQWSAGQYVIVREDGYAVRWIK”, the “soluble fraction (log2)” value is -0.43.
“HMDAPQRVTYLLPHSRGEVVSWLHRQGEVVAQEYEAEGVRVVVDLRYAQIRQAAKQFDVLPAEG”: the “soluble fraction (log2)” value is -0.656.
Turning to “HMDAPRFAAGDAVRVAGLVSKPQHNGRAGSVLSYDPVSLRYIVKVDGEDEPLKLKPENVLMPA”, the “soluble fraction (log2)” value stood at 0.0764.
As to “HMDAQLRVPDLTPYNYSELKENTSLYEGFTIEVVEERSTGDYAAGTVLDQDPKADTLIQDGDSTVIKLVIA”, the “soluble fraction (log2)” value was -0.115.
With “HMDASFTYSLETHPAGVLVRVDGLEYETPFSILLPQGVHRLEVAGEERFFYLSETTHQFLEID” the figure was -0.714.
With “HMDATGDPIADRILQALQLGELTRTQVNNVFQRHLAAARISQALNFLRSLKRADMRMEETAGRSGEVWFAI” the figure was -0.254.
As for “HMDAVKKKVQSTNTLLDVLKQMLPQTSSNTLRKMLTNQRITVDGETIHRAKHTVEKDQTVEIHPKP”, the “soluble fraction (log2)” value was at least 0.43.
In the case of “HMDAVSYTQFMQDAKAGRIKKVIVHQSGILDVTTTEGRRFNLTSPGDLWMVGDLVKDGVDVVGAP” it was 0.139; in that of “HMDAVTYAKGSSGETVREIQQLLLDWGYYSGEVDGIFGSRTEDAVEYFQRKNGLTVDGKVGPATLEALGIS”, -0.349; in that of “HMDAYMIGHNIAKWRKEKGMTQDQLAEHLSVSGQAVSKWENGASLPDIAILPKLAEIFDVTMDQLFSR”, 0.166.
Consider “HMDDAIAEKTGGAVSSVNQRQAILDHIREAYGIELESLRSTDIERYLDDPEIPEPVKDILRDRLRGAK”, for which the “soluble fraction (log2)” value was found to be 0.0292.
As to “HMDDDAELLLKKLSAAGGELPFHDRSEPAEIEAAFGLSKSAFKRALGKLLKAGKVVKTQQGIQLK”, the “soluble fraction (log2)” value came to 0.266.
In the case of “HMDDDIKNALDVLPEQYRMTVYYADVEGLAYKEIGAIMNTPIGTVMSRIHRGRSQLRVLLAAVAADR” it was -0.0958; in that of “HMDDFITLVIHTPAHAQNLRNILESHGMEVRLEDFVSFKSPVAVAQRVKIRPKDLPLALKIIESGE”, 0.126.
Consider “HMDDFVEIDGKKYEIDMSFDNILRLFDLLKDKSLNDVTKIETGLIMLIDDSLDDYDTEEKADIFVQIF”, for which the “soluble fraction (log2)” value turned out to be 0.22.
With “HMDDGALQIRLGPQALQQRLDKLGYSLNKEDLDLVYQYFLHSADSKGAVYDQELRELMGEAGVE” the figure was -0.607; with “HMDDIHTFVYETETPFDPQKLDRYIGSLTAVYGQDMLRYKGILYFAGVDRRVVFQGVHMLAV”, -0.353.
“HMDDILAYEIEDKEDLENLSLGKSIGINLNKLIKPTLNSFDNSLLFLSKKGNIISYGKLNGDLFKPKKVL”: the “soluble fraction (log2)” value is -0.454.
With “HMDDINVSNSKNIVPNVTGHTGSKAIPVLENLGLDVQYSGFGKVTNQSIPAGTRFKKGETIYLMLE” the figure was -0.0218; with “HMDDIVFPNPTKNQINVSIDGLKNIYNLSGKLLISTNDKIIDVSILKAGVYFINTNEQFYKFVK”, -0.797; with “HMDDIVPHSTKNHIIKTFLSLMNSLDIITDKNKKSLNQNVHIIFNKFNFSKKEANLFIGVLNRIQKALK”, 0.134.
For the sequence “HMDDLFGNAIEMFNNQRYDMTYELLVQLLSETPNNEKAWQLLADTKFMLGDYDDALHIVGKAAK”, the “soluble fraction (log2)” value was -1.36.
Turning to “HMDDPWHNLANAIVAVAADDYRSALRNEDEGLLKSLELFFHSEWYRILTDVDADRLLGMLRRERS”, the “soluble fraction (log2)” value is -1.14.
With “HMDDTPLNNVIKKIAALPENITLADKSAVLSAWEAYQALSVNLKAQVSNSELLIKAYETILQLEGEDQIK” the figure was -0.397; with “HMDDYRIEDMMTVVEEQVIRQKETNLSWFFKRAGSLNEIITIFLAALELIKVHRVYVKQEHNFDDIILRKE”, -0.872; with “HMDEAAGVLTQLRAFIAASNLSPGLRLPPERELAEQLGVTRAELRKALAVLEAEGLLWRQVGKGTFYGARP”, -0.523.
Consider “HMDEAEELYQAVQALKPKYREVILLHYYQGLRVGEIAAILRAPQSTVSIRLRRARQMLNRMLG”, for which the “soluble fraction (log2)” value is -0.0788.
In the case of “HMDEALLRATLLDVLVKHHPKIGDKLDVVFALAKAWVSSGSDDDFEVLEKYMERLKPDEALMLASGFSNML” it was -0.819.
On to “HMDEDTWKLYKRAYKKYYARYMKGNMSEAAFKAWGEQAAADRDAAIEQLRATTDAALSASIIQQLKEKLNR”, for which the “soluble fraction (log2)” value came out at 0.22.
As to “HMDEEDVLNELIRRLALTADDRLLLSLSYEDGLSSRKIATLLETSAATVQRRLAGLHHQLEQALRVMGLA”, the “soluble fraction (log2)” value is -0.828.
Take “HMDEEGDALDREYEDQIRLGDEAFDAEDWTSAQRAYTAALELRPDERYPKNRLRRLASLQEDV”: the “soluble fraction (log2)” value was found to be 0.161.
